Measurements reported in patent US20030092067A1.

Columns and labels:
[1] = biological target: Abz-Val-Aib-Nle-Ser-Tyr(NO2)-Asp-NH2
[2] = biological target: Abz-Val-DAla-hLeu-Ser-Tyr(NO2)-Asp-NH2
[3] = biological target: Abz-Val-Ala-Nle-Ser-Tyr-Asp-NH2
[4] = biological target: Abz-2Nal-Ala-hLeu-Ser-Tyr(NO2)-Asp-NH2
[5] = biological target: Abz-Nle-Ser-Tyr(NO2)-Asp-NH2
[6] = biological target: Abz-Gln-Ala-hLeu-Ser-Tyr(NO2)-Asp-NH2
[7] = biological target: Abz-Val-Ala-Nle-Ser-Ala-Asp-NH2
[8] = biological target: Ac-Val-Ala-Nle-Ser-Tyr(NO2)-NH2
[9] = biological target: Bz-Val-Ala-Statine-Ser-eAha-NH2
[10] = biological target: Abz-Val-3pyr-hLeu-Ser-Tyr(NO2)-Asp-NH2
[11] = biological target: Abz-Val-Ala-Hyp-Ser-Tyr(NO2)-Asp-NH2
[12] = biological target: H-Ala-Nle-Ser-Tyr(NO2)-ASP-NH2
[13] = biological target: Abz-Hyp-Val-Ala-Nle-Ser-Tyr(NO2)-Asp-NH2
[14] = biological target: Abz-Bip-Ala-hLeu-Lys-Tyr(NO2)-Asp-NH2
[15] = biological target: Abz-Glu-Val-Ala-Nle-Ser-Tyr(NO2)-Asp-NH2
[16] = biological target: Abz-Met(O)-Ala-hLeu-Ser-Tyr(NO2)-Asp-NH2
[17] = biological target: Abz-Leu-Ala-hLeu-Ser-Tyr(NO2)-Asp-NH2
[18] = biological target: Abz-Bip-Ala-hLeu-Leu-Tyr(NO2)-Asp-NH2
[19] = biological target: Abz-Val-Ala-Nle-Ser-NH2
[20] = biological target: Abz-Val-DGln-hLeu-Ser-Tyr(NO2)-Asp-NH2
[21] = biological target: Abz-Val-DLys-hLeu-Ser-Tyr(NO2)-Asp-NH2
[22] = biological target: Abz-Bip-Ala-hLeu-Cha-Tyr(NO2)-Asp-NH2
[23] = biological target: Abz-Val-Tic-hLeu-Ser-Tyr(NO2)-Asp-NH2
[24] = biological target: Abz-Val-2Nal-hLeu-Ser-Tyr(NO2)-Asp-NH2
[25] = biological target: n-Bu-Val-Ala-Nle-Ser-Tyr(NO2)-NH2
[26] = biological target: Abz-Val-Ala-Nle-Ser-Lys-Asp-NH2
[27] = biological target: Abz-3.Pyr-Val-Ala-Nle-Ser-Tyr(NO2)-Asp-NH2
[28] = biological target: Abz-Val-Lys-hLeu-Ser-Tyr(NO2)-Asp-NH2
[29] = biological target: Abz-Val-Ala-3pyr-Ser-Tyr(NO2)-Asp-NH2
[30] = biological target: Abz-1.Naph-Val-Ala-Nle-Ser-Tyr(NO2)-Asp-NH2
[31] = biological target: Abz-Bip-Ala-hLeu-Abu-Tyr(NO2)-Asp-NH2
[32] = biological target: Abz-Val-ACP-hLeu-Ser-Tyr(NO2)-Asp-NH2
[33] = biological target: Abz-Bip-Ala-hLeu-Ser-Tyr(NO2)-Asp-NH2
[34] = biological target: Abz-Ala-Nle-Ser-Tyr(NO2)-Asp-NH2
[35] = biological target: Abz-Bip-Ala-hLeu-Asp-Tyr(NO2)-Asp-NH2
[36] = biological target: H-Ala-Nle-Ser-Tyr(NO2)-Asp-NR2
[37] = biological target: Abz-Bip-Ala-hLeu-Bu^tGly-Tyr(NO2)-Asp-NH2
[38] = biological target: Abz-Val-Ala-Thr-Ser-Tyr(NO2)-Asp-NH2
[39] = biological target: Abz-Val-Ala-hLeu-Ser-Tyr(NO2)-Asp-NH2
[40] = biological target: Abz-Val-Ala-His-Ser-Tyr(NO2)-Aso-NH2
[41] = biological target: Abz-Val-Ala-Cha-Ser-Tyr(NO2)-Asp-NH2
[42] = biological target: Abz-Phe-Val-Ala-Nle-Ser-Tyr(NO2)-Asp-NH2
[43] = biological target: Abz-Bip-Ala-hLeu-3pyr-Tyr(NO2)-Asp-NH2
[44] = biological target: Abz-Cmpi-Nle-Ser-Tyr(NO2)-ASP-NH2
[45] = biological target: Abz-Cha-Ala-hLeu-Ser-Tyr(NO2)-Asp-NH2
[46] = biological target: Abz-3pyr-Ala-hLeu-Ser-Tyr(NO2)-Asp-NH2
[47] = biological target: Abz-Bip-Val-Ala-Nle-Ser-Tyr(NO2)-Asp-NH2

B1: Der pI (protein)
chain: TNACSINGNAPAEIDLRQMRTVTPIRMQGGCGSCWAFSGVAATESAYLAYRNQSLDLAEQELVDCASQHGCHGDTIPRGIEYIQHNGVVQESYYRYVAREQSCRRPNAQRFGISNYCQIYPPNVNKIREALAQTHSAIAVIIGIKDLDAFRHYDGRTIIQRDNGYQPNYHAVNIVGYSNAQGVDYWIVRNSWDTNWGDNGYGYFAANIDLMMIEEYPYVVIL
Measured Km (µM) [1]: NS
Measured Km (µM) [2]: NS
Measured Km (µM) [3]: NM
Measured Km [4]: 15 µM
Measured Km (µM) [5]: NS
Measured Km [6]: 12 µM
Measured Km (µM) [7]: NM
Measured Km (µM) [8]: NS
Measured Km (µM) [9]: NS
Measured Km (µM) [10]: NS
Measured Km (µM) [11]: NS
Measured Km (µM) [12]: NS
Measured Km (µM) [13]: NS
Measured Km [14]: 2 µM
Measured Km [15]: 20 µM
Measured Km [16]: 20 µM
Measured Km [17]: 18 µM
Measured Km [18]: 3.7 µM
Measured Km (µM) [19]: NM
Measured Km (µM) [20]: NS
Measured Km (µM) [21]: NS
Measured Km [22]: 2.5 µM
Measured Km (µM) [23]: NS
Measured Km (µM) [24]: NS
Measured Km (µM) [25]: NM^a
cleavage rate (rank order) [25]: Bz>n-But>Piv>Bz(2-carboxy)>Abz
Measured Km (µM) [26]: NM
Measured Km (µM) [27]: NM
Measured Km [28]: 35 µM
Measured Km [29]: 10 µM
Measured Km [30]: 17 µM
Measured Km [31]: 1.7 µM
Measured Km (µM) [32]: NS
Measured Km [33]: 2.5 µM
Measured Km (µM) [34]: NM
Measured Km [35]: 5 µM
Measured Km (µM) [36]: NS
Measured Km [37]: 4 µM
Measured Km [38]: 6 µM
Measured Km [39]: 4 µM
Measured Km [40]: > 20 µM
Measured Km [41]: 5 µM
Measured Km (µM) [42]: NM
Measured Km [43]: 4 µM
Measured Km (µM) [44]: NS
Measured Km [45]: 9 µM
Measured Km [46]: > 10 µM
Measured Km [47]: 10 µM
